The target in assay [1] is BG505.SOSIP.664.201C-433C HIV-1 Env ectodomain trimer. In words: BLI.
The target of assay [2] is BG505 SOSIP.664 HIV-1 Env ectodomain trimer. In words: BLI. (In general: BLI is a label-free optical method that tracks binding on a fibre tip over time.)
The target of assay [3] is BG505.SOSIP.664.201C-433C HIV-1 Env ectodomain trimer. In words: SPR. (In general: Surface plasmon resonance follows binding to a sensor surface in real time, without labels.)
Assay [4] concerns the target BG505 SOSIP.664 HIV-1 Env ectodomain trimer. In words: SPR.
Assay [5] has as its target BG505.SOSIP.664.201C-433C HIV-1 Env ectodomain trimer. In words: SPR. The source holds these as a separate data set.
Assay [6] shares this target. In words: BLI. The source holds these as a separate data set.
The target of assay [7] is T1, BG505 SOSIP.664 trimer+sCD4 complex (human, UniProt P01730 26-208). In words: SPR; 17b capture.
The target in assay [8] is BG505 SOSIP.664 HIV-1 Env ectodomain trimer. In words: SPR; CD4 Ig capture.
Assay [9] has the same target. In words: SPR; 2G12 capture.
The target is the same in assay [10]. In words: SPR; CD4 Ig capture. This is another data set of the same source.
The target of assay [11] is T1, BG505 SOSIP.664 trimer+sCD4 complex. In words: SPR.
Assay [12] has as its target BG505.SOSIP.664.201C-433C HIV-1 Env ectodomain trimer. In words: SPR; +sCD4.

From patent publication US20230227512A1 (published 2023) come the findings set out here.

In general, Kd refers to the equilibrium constant for the complex coming apart.

B1: F105 antibody (antibody, V domains shown)
VH: QVQLQESGPGLVKPSETLSLTCTVSGGSISSHYWSWIRQSPGKGLQWIGYIYYSGSTNYSPSLKSRVTISVETAKNQFSLKLTSMTAADTAVYYCARGPVPAVFYGDYRLDPWGQGTLVTVSS
VL: EIVLTQSPGTLSLSAGERATLSCRASQSVSSRYLAWYQQKPGQAPRLLIYGASSRATGIPDRFSGSGSGTDFTLTISRVEPEDFAVYYCQQYDNSVCTFGQGTKLEIK
On to B1, for which the Kd in assay [1] was greater than 4000 nM; in assay [2], greater than 4000 nM; in assay [3], greater than 1000 nM; in [4], greater than 1000 nM.

B2: 35O22 Fab (Fab, V domains shown)
VH: QGQLVQSGAELKKPGASVKISCKTSGYRFNFYHINWIRQTAGRGPEWMGWISPYSGDKNLAPAFQDRVIMTTDTEVPVTSFTSTGAAYMEIRNLKFDDTGTYFCAKGLLRDGSSTWLPYLWGQGTLLTVSS
VL: QSVLTQSASVSGSLGQSVTISCTGPNSVCCSHKSISWYQWPPGRAPTLIIYEDNERAPGISPRFSGYKSYWSAYLTISDLRPEDETTYYCCSYTHNSGCVFGTGTKVSVL
As for B2, the equilibrium dissociation constant (Kd) in assay [5] was determined as 3.04 nM; in assay [6], 27.7 nM; in assay [7] it was 27.2 nM; in assay [8], 28 nM.

B3: PGT151 Fab (Fab, V domains shown)
VH: RVQLVESGGGVVQPGKSVRLSCVVSDFPFSKYPMYWVRQAPGKGLEWVAAISGDAWHVVYSNSVQGRFLVSRDNVKNTLYLEMNSLKIEDTAVYRCARMFQESGPPRLDRWSGRNYYYYSGMDVWGQGTTVTVSS
VL: DIVMTQTPLSLSVTPGQPASISCKSSESLRQSNGKTSLYWYRQKPGQSPQLLVFEVSNRFSGVSDRFVGSGSGTDFTLRISRVEAEDVGFYYCMQSKDFPLTFGGGTKVDLKR
Regarding B3, the Kd in assay [1] turned out to be 202 nM; in assay [2], 135 nM; in assay [3], 78.4 nM; in assay [4] it was 158 nM; in assay [9], 144 nM; in assay [10], 106 nM.

B4: VRC01 (antibody, V domains shown)
VH: QVQLVQSGGQMKKPGESMRISCRASGYEFIDCTLNWIRLAPGKRPEWMGWLKPRGGAVNYARPLQGRVTMTRDVYSDTAFLELRSLTVDDTAVYFCTRGKNCDYNWDFEHWGRGTPVIVSS
VL: EIVLTQSPGTLSLSPGETAIISCRTSQYGSLAWYQQRPGQAPRLVIYSGSTRAAGIPDRFSGSRWGPDYNLTISNLESGDFGVYYCQQYEFFGQGTKVQVDI
As to B4, the Kd came out at 1.43 nM in [5] and 2.81 nM in assay [6].

B5: PGT145 antibody (antibody, V domains shown)
VH: QVQLVQSGAEVKKPGSSVKVSCKASGNSFSNHDVHWVRQATGQGLEWMGWMSHEGDKTGLAQKFQGRVTITRDSGASTVYMELRGLTADDTAIYYCLTGSKHRLRDYFLYNEYGPNYEEWGDYLATLDVWGHGTAVTVSS
VL: EVVITQSPLFLPVTPGEAASLSCKCSHSLQHSTGANYLAWYLQRPGQTPRLLIHLATHRASGVPDRFSGSGSGTDFTLKISRVESDDVGTYYCMQGLHSPWTFGQGTKVEIK
Turning to B5, the Kd in assay [1] came out at 1.68 nM; in [2] it was 1.8 nM; in [3], 7.22 nM; in assay [4], 4.38 nM; in [9], 22.8 nM.

B6: 447-52D antibody (antibody, V domains shown)
VH: EVQLVESGGGLVKPGGSLRLTCVASGFTFSDVWLNWVRQAPGKGLEWVGRIKSRTDGGTTDYAASVKGRFTISRDDSKNTLYLQMNSLKTEDTAVYSCTTDGFIMIRGVSEDYYYYYMDVWGKGTTVTVSS
VL: QSVLTQPPSVSAAPGQKVTISCSGSSSNIGNNYVLWYQQFPGTAPKLLIYGNNKRPSGIPDRFSGSKSGTSATLGITGLQTGDEADYFCATWDSGLSADWVFGGGTKLTVL
For the molecule B6, the Kd in [1] is greater than 4000 nM; in assay [2] it was greater than 4000 nM; in assay [3], greater than 1000 nM; in [11], 1.2 nM; in assay [4], greater than 1000 nM; in [12], greater than 1000 nM.
